{"source": "IntAct's records for PubMed 14594812", "parents": {"B1": {"name": "Phospholipase D alpha 1 (Arabidopsis thaliana (Mouse-ear cress)), Q38882 (parent)", "chain": "MAQHLLHGTLHATIYEVDALHGGGVRQGFLGKILANVEETIGVGKGETQLYATIDLQKARVGRTRKIKNEPKNPKWYESFHIYCAHLASDIIFTVKDDNPIGATLIGRAYIPVDQVINGEEVDQWVEILDNDRNPIQGGSKIHVKLQYFHVEEDRNWNMGIKSAKFPGVPYTFFSQRQGCKVSLYQDAHIPDNFVPRIPLAGGKNYEPQRCWEDIFDAISNAKHLIYITGWSVYAEIALVRDSRRPKPGGDVTIGELLKKKASEGVRVLLLVWDDRTSVDVLKKDGLMATHDEETENFFRGSDVHCILCPRNPDDGGSIVQSLQISTMFTHHQKIVVVDSEMPSRGGSEMRRIVSFVGGIDLCDGRYDTPFHSLFRTLDTVHHDDFHQPNFTGAAITKGGPREPWHDIHSRLEGPIAWDVMYNFEQRWSKQGGKDILVKLRDLSDIIITPSPVMFQEDHDVWNVQLFRSIDGGAAAGFPESPEAAAEAGLVSGKDNIIDRSIQDAYIHAIRRAKDFIYVENQYFLGSSFAWAADGITPEDINALHLIPKELSLKIVSKIEKGEKFRVYVVVPMWPEGLPESGSVQAILDWQRRTMEMMYKDVIQALRAQGLEEDPRNYLTFFCLGNREVKKDGEYEPAEKPDPDTDYMRAQEARRFMIYVHTKMMIVDDEYIIIGSANINQRSMDGARDSEIAMGGYQPHHLSHRQPARGQIHGFRMSLWYEHLGMLDETFLDPSSLECIEKVNRISDKYWDFYSSESLEHDLPGHLLRYPIGVASEGDITELPGFEFFPDTKARILGTKSDYLPPILTT", "partner": "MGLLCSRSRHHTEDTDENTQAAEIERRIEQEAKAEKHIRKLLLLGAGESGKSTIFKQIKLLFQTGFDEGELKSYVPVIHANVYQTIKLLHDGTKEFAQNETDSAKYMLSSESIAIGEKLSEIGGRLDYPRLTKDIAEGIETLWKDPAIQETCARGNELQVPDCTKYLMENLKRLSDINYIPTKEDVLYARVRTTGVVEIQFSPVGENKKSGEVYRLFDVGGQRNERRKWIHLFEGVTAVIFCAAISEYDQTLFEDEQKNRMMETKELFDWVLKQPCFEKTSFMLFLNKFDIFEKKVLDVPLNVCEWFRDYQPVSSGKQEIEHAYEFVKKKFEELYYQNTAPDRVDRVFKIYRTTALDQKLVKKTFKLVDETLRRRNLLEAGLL"}}}
{"variants_of": "B1", "settings": "with gpa1_arath GPA1, P18064"}
{"variant": "K564A", "effect of a mutation on the interaction": "disrupting interaction"}
{"variant": "F565A", "effect of a mutation on the interaction": "decreasing interaction"}
{"variant": "E563A", "effect of a mutation on the interaction": "decreasing interaction"}
{"variants_of": "B1", "settings": "with gpa1_arath GPA1, P18064", "remark": "another data set of the same source"}
{"variant": "K564A", "effect of a mutation on the interaction": "decreasing interaction"}
